Source: paper PMC6220269, “Dynamic ubiquitylation of Sox2 regulates proteostasis and governs neural progenitor cell differentiation” (Nature Communications, 2018)

Molecular target: T1, His-Sox2 (human, UniProt P48431 1-317)
T1 construct: Sox2, human, cloned into pGEX-6p-1 or pET-28a (+) for the GST pull-down; source: E. coli BL21, purified
Assay: pull-down; GST-tagged protein on glutathione-Sepharose 4B beads incubated with His-tagged protein for 24 h at 4 °C; washed four times with 100 mM NaCl, 10 mM Tris, 50 mM NaF, 2 mM EDTA, 0.5 mM Na3VO4, 1% Nonidet P40; western blot
Settings: both partners purified

T1 sequence (P48431 whole entry): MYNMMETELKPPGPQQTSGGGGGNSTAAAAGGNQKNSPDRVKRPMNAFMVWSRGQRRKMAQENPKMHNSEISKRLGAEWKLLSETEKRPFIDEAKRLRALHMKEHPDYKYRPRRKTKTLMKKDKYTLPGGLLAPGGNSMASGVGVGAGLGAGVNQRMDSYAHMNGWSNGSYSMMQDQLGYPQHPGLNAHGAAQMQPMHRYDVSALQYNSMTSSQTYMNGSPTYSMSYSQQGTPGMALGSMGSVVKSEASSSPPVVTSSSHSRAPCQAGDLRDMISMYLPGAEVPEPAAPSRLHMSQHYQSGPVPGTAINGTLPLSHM

binding result: binds
B1: GST-OTUD7B-ZF (811–843) (domain or fragment, human, UniProt Q6GQQ9 811-843, looked up)
chain: GHPETNNFCSCCYREELRRREREPDGELLVHRF
notes: OTUD7B, human, C-terminal zinc finger (ZF) domain, residues 811-843; also called OTUD7B ZF domain; source: E. coli BL21, purified
